Consider one molecule from patent US20070178531A1 (BIOCHECK, published 2007).

Assay [1] addresses T1, Mouse Id1: Histidine (mouse, UniProt P20067-2 1-148, limits assumed).
T1 construct: Fusion protein made in E. coli from vector pGW07; also called m-Id1-His; not shown: His tag
T1 sequence (looked up): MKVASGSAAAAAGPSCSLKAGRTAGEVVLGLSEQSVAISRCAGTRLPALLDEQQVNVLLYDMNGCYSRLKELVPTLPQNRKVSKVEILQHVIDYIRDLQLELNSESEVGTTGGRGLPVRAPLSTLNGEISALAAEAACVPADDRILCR
Put plainly: ELISA, Ab 0.010 µg/ml.

The target in assay [2] is T2, Human Id3: Histidine (human, UniProt Q02535 1-119 at identity 1.00)).
T2 construct: Fusion protein made in E. coli from vector pGW07; also called h-Id3: His; Human Id3 (coated wells); not shown: His tag
T2 chain: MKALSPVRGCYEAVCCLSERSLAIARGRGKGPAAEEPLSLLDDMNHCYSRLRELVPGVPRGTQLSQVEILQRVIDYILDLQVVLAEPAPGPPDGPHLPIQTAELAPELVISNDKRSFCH
As to the kind of experiment: ELISA, Ab 0.010 µg/ml. (An ELISA detects its analyte on a solid surface through an enzyme-linked reagent.)

Assay [3] deals with T3, Mouse Id2: Histidine (mouse, UniProt P41136 1-134, limits assumed).
T3 construct: Fusion protein made in E. coli from vector pGW07; also called m-Id2: His; not shown: His tag
T3 sequence (looked up): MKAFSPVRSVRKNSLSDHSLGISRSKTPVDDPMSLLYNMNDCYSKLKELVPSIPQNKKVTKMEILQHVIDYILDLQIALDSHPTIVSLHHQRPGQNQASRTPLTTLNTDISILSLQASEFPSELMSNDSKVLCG
As to the kind of experiment: ELISA, Ab 0.010 µg/ml.

The target of assay [4] is T4, Human Id1: Histidine (human, UniProt P41134 1-155, limits assumed).
T4 construct: Fusion protein made in E. coli from vector pGW07; also called h-Id1: his; not shown: His tag
T4 sequence (looked up): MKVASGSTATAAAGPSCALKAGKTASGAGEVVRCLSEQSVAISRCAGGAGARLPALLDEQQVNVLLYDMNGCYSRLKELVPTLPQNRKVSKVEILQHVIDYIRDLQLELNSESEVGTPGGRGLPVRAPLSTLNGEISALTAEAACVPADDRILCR
As to the kind of experiment: ELISA, Ab 0.010 µg/ml.

In assay [5] the target is T5, Mouse Id3: Histidine (mouse, UniProt P41133 1-119).
T5 construct: Fusion protein made in E. coli from vector pGW07; also called m-Id3: His; Mouse Id3 (coated wells); not shown: His tag
T5 sequence: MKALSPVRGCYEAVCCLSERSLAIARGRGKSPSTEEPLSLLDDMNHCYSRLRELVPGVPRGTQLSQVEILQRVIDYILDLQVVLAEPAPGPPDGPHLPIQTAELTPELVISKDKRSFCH
Put plainly: ELISA, Ab 0.010 µg/ml.

Assay [6] deals with T6, Human Id2: Histidine (human, UniProt Q02363 1-134, limits assumed).
T6 construct: Fusion protein made in E. coli from vector pGW07; also called h-Id2: His; not shown: His tag
T6 sequence (looked up): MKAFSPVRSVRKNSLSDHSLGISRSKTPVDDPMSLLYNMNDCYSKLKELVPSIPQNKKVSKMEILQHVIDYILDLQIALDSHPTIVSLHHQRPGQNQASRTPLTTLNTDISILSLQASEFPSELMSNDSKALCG
As to the kind of experiment: ELISA, Ab 0.010 µg/ml.

The target of assay [7] is T4, Human Id1: Histidine. Put plainly: ELISA, Ab 0.005 µg/ml.
The target in assay [8] is T5, Mouse Id3: Histidine. Put plainly: ELISA, Ab 0.005 µg/ml.
Assay [9] deals with T1, Mouse Id1: Histidine. Put plainly: ELISA, positive control (stated to be BCH-4/6-1) 0.25 µg/ml. The protocol:
(§1) 1. Dispense 100 μL of antibody diluent, diluted rabbit monoclonal human Id3, and mouse/human Id3 hybridoma supernatants into appropriate wells. […] 2. Incubate at room temperature with mechanical shaking at 750 rpm for 90 minutes. [0165] 3. Remove the incubation mixture by flicking plate content into an appropriate waste container followed by rinsing the wells 5 times with distilled water. [0166] 4. Strike the wells sharply onto absorbent paper or paper towels to remove all residual water droplets. [0167] 5. Dispense 100 μL of 1:50,000 Goat Anti-Rabbit IgG-HRP Conjugate Reagent into each well. Gently mix for 5 seconds. [0168] 6. Incubate at room temperature with mechanical shaking at 750 rpm for 90 minutes. [0169] 7. Repeat procedures 3 and 4. [0170] 8. Dispense 100 μL of TMB Reagent into each well. Gently mix for 5 seconds. [0171] 9. Incubate at room temperature with mechanical shaking at 750 rpm for 20 minutes. […] 10. Add 100 μL of Stop Solution (1N HCl) into each well. [0173] 11. Gently mix for 10 seconds to ensure a complete mixing. [0174] 12. Read optical density at A450 nm.
(§2) The materials and method are the same as those described in Example 9 except the following.
(§3) Rabbit monoclonal anti-mouse Id3, hybridoma supernatant was used as the test antibody. Protein G purified, rabbit monoclonal anti-mouse/human Id3 antibody, BCH-4/6-1, 0.92 mg/ml in 0.25% BSA was used as positive controls.

Assay [10] has as its target T2, Human Id3: Histidine. The assay is described as above. The protocol: as §1, §2, §3
Assay [11] addresses T3, Mouse Id2: Histidine. The assay is described as above. The protocol:
as §1, §2, §3

Assay [12] deals with T4, Human Id1: Histidine. Described as above. The protocol: as §1, §2, §3
Assay [13] concerns the target T5, Mouse Id3: Histidine. Described as above. The protocol: as §1, §2, §3
In assay [14] the target is T6, Human Id2: Histidine. The description is as above. The protocol:
as §1, §2, §3

In assay [15] the target is T5, Mouse Id3: Histidine. Put plainly: ELISA, Ab 0.250 µg/ml.

B1: rabbit monoclonal anti-mouse/human Id3, clone #BCH-4/#6-1 (antibody, V domains shown)
VH: QSVEESGGRLVTPGTPLTLTCTASGFSLSNVYIHWVRQAPGKGLEWIGYISDGDTARYATWAKGRFTISKTSSTTVNLKMTSLTTEDTATYFCARQGFNIWGPGTLVTVSL
VL: AVLTQTPSPVSAAVGGTVSISCQSSQSVWNNNWLSWFQQKPGQPPKLLIYETSKLESGVPSRFKGSGSGTQFTLTISDVQCDDAATYYCLGGYWTTSDNNVFGGGTEVVVK
notes: Rabbit IgG from a rabbit hybridoma; also called m/h Id3 MoAb 6-1
As for B1, the A450 was found to be 0.079 A450 in assay [1]; 0.48 A450 in [2]; 0.071 A450 in assay [3]; 0.078 A450 in [4]; 0.53 A450 in [5]; 0.071 A450 in assay [6]. The A450 was found to be 0.075 A450 in [7]; 0.295 A450 in [8]; 1.96 A450 in [9]; 2.69 A450 in assay [10]; 2.44 A450 in [11]; 2.12 A450 in assay [12]. The A450 in assay [13] came out at 2.81 A450; in assay [14] it was 2.54 A450; in [15], 3.13 A450.
